# Measurements published in the RNAGym collection of RNA variant scans (doi:10.7554/elife.80360).
# B1: CPEB3 Ribozyme (parent)
# chain: GGGGGCCACAGCAGAAGCGUUCACGUCGCGGCCCCUGUCAGAUUCUGGUGAAUCUGCGAAUUCUGCUGU
# Variants of: B1
# Experiment: self-cleavage, relative activity (ratio to wild type); higher = more cleavage; co-transcriptional
row,Variant,self-cleavage
1,C24G G56U,0.299
2,C24G G58A,0.247
3,C24G G58C,0.248
4,C24G G65A,0.26
5,C24G G68A,0.725
6,C24G G68U,0.699
7,C24G U26C,0.386
8,C24G U36A,0.118
9,C24G U36C,0.171
10,C24G U36G,0.146
11,C24G U38C,0.413
12,C24G U38G,0.215
13,C24G U43A,0.348
14,C24G U43C,0.309
15,C24G U44A,0.514
16,C24G U44C,0.348
17,C24G U46A,0.452
18,C24G U46C,0.505
19,C24G U46G,0.471
20,C24G U49C,0.523
21,C24G U53A,0.339
22,C24G U53C,0.235
23,C24G U53G,0.177
24,C24G U55A,0.36

row,Variant,self-cleavage
1,C24G U55G,0.191
2,C24G U61A,0.173
3,C24G U61C,0.284
4,C24G U61G,0.306
5,C24G U62A,0.27
6,C24G U62G,0.203
7,C24G U64C,0.315
8,C24G U64G,0.338
9,C24G U67A,0.368
10,C24G U69C,0.739
11,C24U,0.844
12,C24U A40G,0.738
13,C24U A40U,0.317
14,C24U A42G,0.631
15,C24U A42U,0.654
16,C24U A51C,0.782
17,C24U A52C,0.791
18,C24U A59C,0.281
19,C24U A59G,0.866
20,C24U A60C,0.254
21,C24U C27G,0.189
22,C24U C27U,0.193
23,C24U C29A,0.292
24,C24U C29G,0.246

row,Variant,self-cleavage
1,C24U C29U,0.143
2,C24U C32A,0.414
3,C24U C32G,0.211
4,C24U C33A,0.465
5,C24U C33G,0.294
6,C24U C33U,0.856
7,C24U C34A,0.263
8,C24U C34G,0.283
9,C24U C34U,0.858
10,C24U C35U,0.579
11,C24U C45A,0.743
12,C24U C45G,0.776
13,C24U C54A,0.561
14,C24U C54U,0.808
15,C24U C57G,0.24
16,C24U C57U,0.244
17,C24U C63G,0.328
18,C24U C66A,0.331
19,C24U C66G,0.346
20,C24U C66U,0.734
21,C24U G25A,0.212
22,C24U G25C,0.105
23,C24U G30A,0.389
24,C24U G30U,0.199

row,Variant,self-cleavage
1,C24U G31A,0.316
2,C24U G31U,0.271
3,C24U G37U,0.251
4,C24U G41A,0.394
5,C24U G41U,0.461
6,C24U G47A,0.869
7,C24U G47U,0.909
8,C24U G48A,0.815
9,C24U G48C,0.86
10,C24U G48U,0.889
11,C24U G50A,0.838
12,C24U G50C,0.795
13,C24U G56A,0.61
14,C24U G56C,0.307
15,C24U G56U,0.528
16,C24U G58C,0.742
17,C24U G58U,0.879
18,C24U G65A,0.39
19,C24U G65U,0.352
20,C24U G68C,0.928
21,C24U G68U,0.96
22,C24U U36G,0.182
23,C24U U38A,0.418
24,C24U U38C,0.582

row,Variant,self-cleavage
1,C24U U43A,0.679
2,C24U U43C,0.691
3,C24U U43G,0.418
4,C24U U44A,0.687
5,C24U U44C,0.633
6,C24U U44G,0.703
7,C24U U46A,0.852
8,C24U U46C,0.714
9,C24U U49G,0.762
10,C24U U53C,0.53
11,C24U U61A,0.431
12,C24U U61C,0.353
13,C24U U61G,0.397
14,C24U U62A,0.441
15,C24U U62C,0.505
16,C24U U64A,0.42
17,C24U U64C,0.531
18,C24U U67C,0.833
19,C24U U67G,0.761
20,C24U U69A,0.895
21,C24U U69G,0.909
22,G25A,0.202
23,G25A A40C,0.178
24,G25A A40U,0.153

row,Variant,self-cleavage
1,G25A A42C,0.161
2,G25A A42G,0.203
3,G25A A42U,0.178
4,G25A A51G,0.22
5,G25A A51U,0.166
6,G25A A52C,0.253
7,G25A A52G,0.193
8,G25A A52U,0.213
9,G25A A59C,0.157
10,G25A A59G,0.208
11,G25A A59U,0.17
12,G25A A60G,0.171
13,G25A A60U,0.188
14,G25A C27A,0.162
15,G25A C27G,0.208
16,G25A C27U,0.169
17,G25A C29A,0.181
18,G25A C29G,0.216
19,G25A C29U,0.163
20,G25A C32G,0.131
21,G25A C32U,0.255
22,G25A C33A,0.206
23,G25A C33G,0.206
24,G25A C33U,0.276

row,Variant,self-cleavage
1,G25A C34A,0.196
2,G25A C34U,0.185
3,G25A C35G,0.18
4,G25A C35U,0.152
5,G25A C39A,0.237
6,G25A C39G,0.16
7,G25A C39U,0.229
8,G25A C45A,0.208
9,G25A C54A,0.203
10,G25A C54G,0.208
11,G25A C57A,0.223
12,G25A C57U,0.205
13,G25A C63U,0.166
14,G25A C66A,0.196
15,G25A C66U,0.244
16,G25A G28C,0.131
17,G25A G30A,0.155
18,G25A G30C,0.219
19,G25A G31A,0.219
20,G25A G31C,0.147
21,G25A G31U,0.197
22,G25A G37A,0.187
23,G25A G37C,0.119
24,G25A G37U,0.199

row,Variant,self-cleavage
1,G25A G41C,0.172
2,G25A G41U,0.197
3,G25A G47A,0.175
4,G25A G48A,0.208
5,G25A G48U,0.236
6,G25A G56U,0.2
7,G25A G58A,0.22
8,G25A G58C,0.159
9,G25A G58U,0.218
10,G25A G65A,0.189
11,G25A G68A,0.222
12,G25A G68C,0.195
13,G25A G68U,0.224
14,G25A U26C,0.297
15,G25A U26G,0.148
16,G25A U36A,0.184
17,G25A U36C,0.292
18,G25A U36G,0.176
19,G25A U38A,0.149
20,G25A U38C,0.123
21,G25A U38G,0.153
22,G25A U43A,0.154
23,G25A U43C,0.288
24,G25A U43G,0.119

row,Variant,self-cleavage
1,G25A U44A,0.138
2,G25A U44G,0.11
3,G25A U46A,0.267
4,G25A U46C,0.216
5,G25A U49C,0.219
6,G25A U49G,0.207
7,G25A U53A,0.171
8,G25A U53C,0.206
9,G25A U53G,0.169
10,G25A U55C,0.152
11,G25A U55G,0.235
12,G25A U61C,0.247
13,G25A U61G,0.219
14,G25A U62A,0.187
15,G25A U62C,0.19
16,G25A U64A,0.19
17,G25A U64C,0.14
18,G25A U64G,0.185
19,G25A U67C,0.133
20,G25A U67G,0.266
21,G25A U69A,0.295
22,G25A U69C,0.36
23,G25C,0.17
24,G25C A40C,0.173

row,Variant,self-cleavage
1,G25C A40G,0.158
2,G25C A40U,0.176
3,G25C A42C,0.187
4,G25C A42G,0.194
5,G25C A42U,0.203
6,G25C A51C,0.227
7,G25C A51G,0.203
8,G25C A52C,0.182
9,G25C A52G,0.174
10,G25C A52U,0.158
11,G25C A59C,0.193
12,G25C A59G,0.169
13,G25C A59U,0.176
14,G25C A60C,0.149
15,G25C A60G,0.207
16,G25C C27G,0.225
17,G25C C27U,0.172
18,G25C C29G,0.148
19,G25C C29U,0.126
20,G25C C32A,0.147
21,G25C C32G,0.173
22,G25C C33A,0.307
23,G25C C33U,0.258
24,G25C C34A,0.197

row,Variant,self-cleavage
1,G25C C34G,0.14
2,G25C C35A,0.141
3,G25C C35U,0.177
4,G25C C39A,0.197
5,G25C C39G,0.164
6,G25C C39U,0.192
7,G25C C45G,0.147
8,G25C C45U,0.141
9,G25C C54A,0.136
10,G25C C54G,0.162
11,G25C C54U,0.133
12,G25C C57A,0.14
13,G25C C63U,0.136
14,G25C C66A,0.134
15,G25C C66G,0.0932
16,G25C C66U,0.15
17,G25C G28A,0.14
18,G25C G28U,0.16
19,G25C G30A,0.25
20,G25C G30C,0.171
21,G25C G30U,0.193
22,G25C G31C,0.143
23,G25C G31U,0.176
24,G25C G37A,0.171

row,Variant,self-cleavage
1,G25C G37C,0.156
2,G25C G41A,0.123
3,G25C G41C,0.0934
4,G25C G47A,0.102
5,G25C G47C,0.142
6,G25C G47U,0.213
7,G25C G48A,0.16
8,G25C G48U,0.186
9,G25C G50A,0.186
10,G25C G50U,0.216
11,G25C G56A,0.143
12,G25C G58C,0.234
13,G25C G65C,0.18
14,G25C G65U,0.151
15,G25C G68A,0.255
16,G25C G68C,0.18
17,G25C G68U,0.21
18,G25C U36G,0.217
19,G25C U38A,0.176
20,G25C U38C,0.166
21,G25C U38G,0.187
22,G25C U43C,0.164
23,G25C U43G,0.188
24,G25C U44A,0.188

row,Variant,self-cleavage
1,G25C U46A,0.18
2,G25C U46G,0.192
3,G25C U49A,0.14
4,G25C U49G,0.11
5,G25C U53C,0.0815
6,G25C U53G,0.106
7,G25C U55A,0.107
8,G25C U55C,0.107
9,G25C U55G,0.174
10,G25C U61G,0.176
11,G25C U62A,0.132
12,G25C U62C,0.158
13,G25C U62G,0.153
14,G25C U64A,0.132
15,G25C U67A,0.129
16,G25C U67G,0.24
17,G25C U69C,0.333
18,G25U,0.172
19,G25U A40C,0.183
20,G25U A40G,0.114
21,G25U A40U,0.208
22,G25U A42C,0.17
23,G25U A42U,0.163
24,G25U A51C,0.212

row,Variant,self-cleavage
1,G25U A51G,0.168
2,G25U A51U,0.152
3,G25U A52C,0.246
4,G25U A52G,0.146
5,G25U A52U,0.199
6,G25U A59C,0.217
7,G25U A59U,0.199
8,G25U C27G,0.16
9,G25U C29A,0.198
10,G25U C29G,0.161
11,G25U C32G,0.158
12,G25U C33A,0.175
13,G25U C33G,0.128
14,G25U C33U,0.137
15,G25U C34G,0.196
16,G25U C34U,0.151
17,G25U C35A,0.155
18,G25U C35G,0.165
19,G25U C39G,0.124
20,G25U C39U,0.151
21,G25U C45A,0.181
22,G25U C45U,0.156
